{"source": "FireProtDB (doi:10.1007/s00249-013-0926-9)", "parents": {"B1": {"name": "Photosystem II lipoprotein Psb27, P74367 (parent)", "chain": "MSFLKNQLSRLLALILVVAIGLTACDSGTGLTGNYSQDTLTVIATLREAIDLPQDAPNRQEVQDTARGQINDYISRYRRKGDAGGLKSFTTMQTALNSLAGYYTSYGARPIPEKLKKRLQLEFTQAERSIERGV"}}}
{"variants_of": "B1", "settings": "Synechocystis sp. (strain ATCC 27184 / PCC 6803 / Kazusa); pH 7; Thermal; CD; Sodium phosphate Tris HCl 20 mM; transition: 2; reversible: Yes; structure 2KMF; whole UniProt chain shown", "units": {"Tm": "°C"}}
{"variant": "E122R", "Tm": 54.4}
{"variant": "Y102H", "Tm": 56.3}
{"variant": "R132E", "Tm": 60.2}
{"variant": "R78E", "Tm": 57}
{"variant": "D38A", "Tm": 41.9}
{"variant": "E127R", "Tm": 56.1}
{"variant": "R118E", "Tm": 56.6}
{"variant": "P110G P112G", "Tm": 49.2}
{"variant": "C25S", "Tm": 58.2}
{"variant": "P110G I111G P112G", "Tm": 43.3}
